Results on 15 molecules are retold here after patent US20220064329A1 (Novo Nordisk, published 2022).

First the molecules themselves.
T1: recombinant human activated Factor VII (FVIIa) (human, UniProt P08709 61-212; P08709 213-466, ten glutamate residues of the Gla domain may be gamma-carboxylated)
T1 construct: chains tethered by a disulfide bond; also called Factor VIIa; rFVIIa
T1 sequence 1: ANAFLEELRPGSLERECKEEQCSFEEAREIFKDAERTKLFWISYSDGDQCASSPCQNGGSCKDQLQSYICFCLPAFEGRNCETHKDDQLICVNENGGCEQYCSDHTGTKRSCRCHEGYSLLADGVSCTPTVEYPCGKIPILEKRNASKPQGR
T1 sequence 2: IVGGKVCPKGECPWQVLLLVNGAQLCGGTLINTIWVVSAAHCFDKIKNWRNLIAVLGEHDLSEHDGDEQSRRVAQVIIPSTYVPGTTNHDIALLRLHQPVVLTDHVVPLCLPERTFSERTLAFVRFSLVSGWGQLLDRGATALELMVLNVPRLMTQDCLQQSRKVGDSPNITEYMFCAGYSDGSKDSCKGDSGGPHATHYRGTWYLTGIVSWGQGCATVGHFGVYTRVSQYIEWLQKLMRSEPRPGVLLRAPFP

B1: VH SEQ ID NO 522 / VL SEQ ID NO 334 (antibody, IgG4, V domains shown)
VH: QVQLQESGPGLVEPSQTLSLTCTVSGYSISSDSAWSWIRQPPGKGLEWIGYIQYSGSTNYNPSLKSRVTISRDTSKNQFSLKLSSVTAADTAVYYCARSVNYYGNSFAVGPWGQGTLVTVSS
VL: EIVLTQSPATLSLSPGERATLSCRASQGISDYLHWYQQKPGQAPRLLIKYASQPATGIPARFSGSGSGTDFTLTISSLEPEDFAVYYCQNGHSFPLTFGQGTKLEIK
notes: humanized 11F2; IgG4 S228P/kappa
B2: VH SEQ ID NO 522 / VL SEQ ID NO 374 (antibody, IgG4, V domains shown)
VH: QVQLQESGPGLVEPSQTLSLTCTVSGYSISSDSAWSWIRQPPGKGLEWIGYIQYSGSTNYNPSLKSRVTISRDTSKNQFSLKLSSVTAADTAVYYCARSVNYYGNSFAVGPWGQGTLVTVSS
VL: EIVLTQSPATLSLSPGERATLSCRASQGLSDYLAWYQQKPGQAPRLLIKYTSQPATGIPARFSGSGSGTDFTLTISSLEPEDFAVYYCQNGHSFPLTFGQGTKLEIK
notes: as for B1
B3: VH SEQ ID NO 522 / VL SEQ ID NO 414 (antibody, IgG4, V domains shown)
VH: QVQLQESGPGLVEPSQTLSLTCTVSGYSISSDSAWSWIRQPPGKGLEWIGYIQYSGSTNYNPSLKSRVTISRDTSKNQFSLKLSSVTAADTAVYYCARSVNYYGNSFAVGPWGQGTLVTVSS
VL: EIVLTQSPATLSLSPGERATLSCRASQGVSDYLAWYQQKPGQAPRLLIKYASQPATGIPARFSGSGSGTDFTLTISSLEPEDFAVYYCQNGHSFPLTFGQGTKLEIK
notes: as for B1
B4: VH SEQ ID NO 522 / VL SEQ ID NO 358 (antibody, IgG4, V domains shown)
VH: QVQLQESGPGLVEPSQTLSLTCTVSGYSISSDSAWSWIRQPPGKGLEWIGYIQYSGSTNYNPSLKSRVTISRDTSKNQFSLKLSSVTAADTAVYYCARSVNYYGNSFAVGPWGQGTLVTVSS
VL: EIVLTQSPATLSLSPGERATLSCRASQGISDYLHWYQQKPGQAPRLLIKYTSQPATGIPARFSGSGSGTDFTLTISSLEPEDFAVYYCQNGHSFPLTFGQGTKLEIK
notes: as for B1
B5: VH SEQ ID NO 522 / VL SEQ ID NO 390 (antibody, IgG4, V domains shown)
VH: QVQLQESGPGLVEPSQTLSLTCTVSGYSISSDSAWSWIRQPPGKGLEWIGYIQYSGSTNYNPSLKSRVTISRDTSKNQFSLKLSSVTAADTAVYYCARSVNYYGNSFAVGPWGQGTLVTVSS
VL: EIVLTQSPATLSLSPGERATLSCRASQGVSDYLAWYQQKPGEAPRLLIKYASQPATGIPARFSGSGSGTDFTLTISSLEPEDFAVYYCQNGHSFPLTFGQGTKLEIK
notes: as for B1
B6: VH SEQ ID NO 522 / VL SEQ ID NO 398 (antibody, IgG4, V domains shown)
VH: QVQLQESGPGLVEPSQTLSLTCTVSGYSISSDSAWSWIRQPPGKGLEWIGYIQYSGSTNYNPSLKSRVTISRDTSKNQFSLKLSSVTAADTAVYYCARSVNYYGNSFAVGPWGQGTLVTVSS
VL: EIVLTQSPATLSLSPGERATLSCRASQGVSDYLAWYQQKPGEAPRLLIKYTSQPATGIPARFSGSGSGTDFTLTISSLEPEDFAVYYCQNGHSFPLTFGQGTKLEIK
notes: as for B1
B7: VH SEQ ID NO 522 / VL SEQ ID NO 446 (antibody, IgG4, V domains shown)
VH: QVQLQESGPGLVEPSQTLSLTCTVSGYSISSDSAWSWIRQPPGKGLEWIGYIQYSGSTNYNPSLKSRVTISRDTSKNQFSLKLSSVTAADTAVYYCARSVNYYGNSFAVGPWGQGTLVTVSS
VL: EIVLTQSPATLSLSPGERATLSCRASQGVSDYLAWYQQKPGQAPRLLIKYTSQPATGIPARFSGSGSGTDFTLTISSLEPEDFAVYYCQNGHSFPLTFGQGTKLEIK
notes: as for B1
B8: VH SEQ ID NO 522 / VL SEQ ID NO 406 (antibody, IgG4, V domains shown)
VH: QVQLQESGPGLVEPSQTLSLTCTVSGYSISSDSAWSWIRQPPGKGLEWIGYIQYSGSTNYNPSLKSRVTISRDTSKNQFSLKLSSVTAADTAVYYCARSVNYYGNSFAVGPWGQGTLVTVSS
VL: EIVLTQSPATLSLSPGERATLSCRASQGVSDYLAWYQQKPGQAPRLLIKYASQPATGIPARFSGSGSGTDFTLTISSLEPEDFAVYYCQNGHSFPLTFGAGTKLEIK
notes: as for B1
B9: VH SEQ ID NO 522 / VL SEQ ID NO 342 (antibody, IgG4, V domains shown)
VH: QVQLQESGPGLVEPSQTLSLTCTVSGYSISSDSAWSWIRQPPGKGLEWIGYIQYSGSTNYNPSLKSRVTISRDTSKNQFSLKLSSVTAADTAVYYCARSVNYYGNSFAVGPWGQGTLVTVSS
VL: EIVLTQSPATLSLSPGERATLSCRASQGISDYLHWYQQKPGQAPRLLIKYTSQPATGIPARFSGSGSGRDFTLTISSLEPEDFAVYYCQNGHSFPLTFGAGTKLELK
notes: as for B1
B10: VH SEQ ID NO 522 / VL SEQ ID NO 438 (antibody, IgG4, V domains shown)
VH: QVQLQESGPGLVEPSQTLSLTCTVSGYSISSDSAWSWIRQPPGKGLEWIGYIQYSGSTNYNPSLKSRVTISRDTSKNQFSLKLSSVTAADTAVYYCARSVNYYGNSFAVGPWGQGTLVTVSS
VL: EIVLTQSPATLSLSPGERATLSCRASQGVSDYLAWYQQKPGQAPRLLIKYASQPATGIPARFSGSGSGTDFTLTISSLEPEDVAVYYCQNGHSFPLTFGQGTKLEIK
notes: as for B1
B11: VH SEQ ID NO 522 / VL SEQ ID NO 382 (antibody, IgG4, V domains shown)
VH: QVQLQESGPGLVEPSQTLSLTCTVSGYSISSDSAWSWIRQPPGKGLEWIGYIQYSGSTNYNPSLKSRVTISRDTSKNQFSLKLSSVTAADTAVYYCARSVNYYGNSFAVGPWGQGTLVTVSS
VL: EIVLTQSPATLSLSPGERATLSCRASQGLSDYLHWYQQKPGEAPRLLIKYASQPATGIPARFSGSGSGTDFTLTISSLEPEDFAVYYCQNGHSFPLTFGQGTKLEIK
notes: as for B1
B12: VH SEQ ID NO 522 / VL SEQ ID NO 422 (antibody, IgG4, V domains shown)
VH: QVQLQESGPGLVEPSQTLSLTCTVSGYSISSDSAWSWIRQPPGKGLEWIGYIQYSGSTNYNPSLKSRVTISRDTSKNQFSLKLSSVTAADTAVYYCARSVNYYGNSFAVGPWGQGTLVTVSS
VL: EIVLTQSPATLSLSPGERATLSCRASQGVSDYLAWYQQKPGQAPRLLIKYASQPATGIPARFSGSGSGTDFTLTISSLEPEDFAVYYCQQGHSFPLTFGQGTKLEIK
notes: as for B1
B13: VH SEQ ID NO 522 / VL SEQ ID NO 350 (antibody, IgG4, V domains shown)
VH: QVQLQESGPGLVEPSQTLSLTCTVSGYSISSDSAWSWIRQPPGKGLEWIGYIQYSGSTNYNPSLKSRVTISRDTSKNQFSLKLSSVTAADTAVYYCARSVNYYGNSFAVGPWGQGTLVTVSS
VL: EIVLTQSPATLSLSPGERATLSCRASQGISDYLHWYQQKPGQAPRLLIKYTSQPATGIPARFSGSGSGTDFTLTISSLEPEDFAVYYCQNGHSFPLTFGAGTKLELK
notes: as for B1
B14: VH SEQ ID NO 522 / VL SEQ ID NO 366 (antibody, IgG4, V domains shown)
VH: QVQLQESGPGLVEPSQTLSLTCTVSGYSISSDSAWSWIRQPPGKGLEWIGYIQYSGSTNYNPSLKSRVTISRDTSKNQFSLKLSSVTAADTAVYYCARSVNYYGNSFAVGPWGQGTLVTVSS
VL: EIVLTQSPATLSLSPGERATLSCRASQGLSDYLAWYQQKPGEAPRLLIKYASQPATGIPARFSGSGSGTDFTLTISSLEPEDFAVYYCQNGHSFPLTFGQGTKLEIK
notes: as for B1
B15: VH SEQ ID NO 522 / VL SEQ ID NO 430 (antibody, IgG4, V domains shown)
VH: QVQLQESGPGLVEPSQTLSLTCTVSGYSISSDSAWSWIRQPPGKGLEWIGYIQYSGSTNYNPSLKSRVTISRDTSKNQFSLKLSSVTAADTAVYYCARSVNYYGNSFAVGPWGQGTLVTVSS
VL: EIVLTQSPATLSLSPGERATLSCRASQGVSDYLAWYQQKPGQAPRLLIKYASQPATGIPARFSGSGSGTDFTLTISSLEPEDFGVYYCQNGHSFPLTFGQGTKLEIK
notes: as for B1

The Kd is the concentration at which binding is half-saturated.

This experiment has as its target T1, recombinant human activated Factor VII …. Kind of experiment: BLI (Fortebio). As for the experimental part:
All steps were performed in running buffer (20 mM HEPES buffer (pH 7.4), 150 mM NaCl, 5 mM CaCl2, 0.03% Tween 20, 1 mg/ml IgG-free BSA) at […] Antibodies were captured on anti-human tips (AHC, Fortebio) for 3 min at a concentration of 10 ug/ml. This was followed by a 3 min incubation to establish a baseline. Following this, association was monitored for 3 min using four different concentrations of VIIa (25 nm, 50 nM, 100 nM, and 200 nM), followed by a 3 mi dissociation. Sensorgrams were analysed using Fortebio data analysis software.
(In BLI a coated tip is dipped into the sample, and binding shifts an interference pattern.)
Take B1: the Kd is 1.2 nM. As for B2, the Kd was determined as 14 nM. The same measure for B3: 31 nM. B4: the Kd was 1.3 nM.

On to B5, for which the Kd worked out at 15 nM. Regarding B6, the Kd stood at 320 nM. Consider B7, for which the Kd turned out to be 170 nM. As for B8, the Kd was found to be 17 nM. The same measure for B9: 1.4 nM. With B10 the figure was 57 nM.

For B11, the Kd amounted to 1.3 nM. B12: the Kd came to 110 nM.

Take B13: the Kd is 1.3 nM. For B14, the Kd stood at 14 nM. In the case of B15, the Kd was 12 nM.
